Results: US20250109178A1 (published 2025)
Where two headings read alike, the source gives them in different places.

B1: rituximab-ULBP2.AA MicAbody (bispecific antibody)
heavy: not shown
light: QIVLSQSPAILSASPGEKVTMTCRASSSVSYIHWFQQKPGSSPKPWIYATSNLASGVPVRFSGSGSGTSYSLTISRVEAEDAATYYCQQWTSNPPTFGGGTKLEIKTVAAPSVFIFPPSDEQLKSGTASVVCLLNNFYPREAKVQWKVDNALQSGNSQESVTEQDSKDSTYSLSSTLTLSKADYEKHKVYACEVTHQGLSSPVTKSFNRGECAPTSSSGGGGSEPHSLSYDITVIPKFRPGPRWCAVQGQVDEKTFLHYDCGNKTVTPVSPLGKKLNVTTAWKAQNPVLREVVDILTEQLWDIQLENYTPKEPLTLQARMSCEQKAEGHSSGSWQFSFDGQIFLLFDSEKRMWTTVHPGARKMKEKWENDKVVATMFWSWSMGDCIGWLEDFLMGMDSTLEPS
B2: rituximab-ULBP2.AB MicAbody (bispecific antibody)
heavy: not shown
light: QIVLSQSPAILSASPGEKVTMTCRASSSVSYIHWFQQKPGSSPKPWIYATSNLASGVPVRFSGSGSGTSYSLTISRVEAEDAATYYCQQWTSNPPTFGGGTKLEIKTVAAPSVFIFPPSDEQLKSGTASVVCLLNNFYPREAKVQWKVDNALQSGNSQESVTEQDSKDSTYSLSSTLTLSKADYEKHKVYACEVTHQGLSSPVTKSFNRGECAPTSSSGGGGSEPHSLSYDITVIPKFRPGPRWCAVQGQVDEKTFLHYDCGNKTVTPVSPLGKKLNVTTAWKAQNPVLREVVDILTEQLWDIQLENYTPKEPLTLQARMSCEQKAEGHSSGSWQFSFDGQIFLLFDSEKRMWTTVHPGARKMKEKWENDKVVATLMWQWSMGDCIGWLEDFLMGMDSTLEPS
B3: rituximab-ULBP2.C MicAbody (bispecific antibody)
heavy: not shown
light: QIVLSQSPAILSASPGEKVTMTCRASSSVSYIHWFQQKPGSSPKPWIYATSNLASGVPVRFSGSGSGTSYSLTISRVEAEDAATYYCQQWTSNPPTFGGGTKLEIKTVAAPSVFIFPPSDEQLKSGTASVVCLLNNFYPREAKVQWKVDNALQSGNSQESVTEQDSKDSTYSLSSTLTLSKADYEKHKVYACEVTHQGLSSPVTKSFNRGECAPTSSSGGGGSEPHSLSYDITVIPKFRPGPRWCAVQGQVDEKTFLHYDCGNKTVTPVSPLGKKLNVTTAWKAQNPVLREVVDILTEQLWDIQLENYTPKEPLTLQARMSCEQKAEGHSSGSWQFSFDGQIFLLFDSEKRMWTTVHPGARKMKEKWENDKVVATILWQTSMGDCIGWLEDFLMGMDSTLEPS
B4: rituximab-ULBP2.S3 MicAbody (bispecific antibody)
heavy: not shown
light: QIVLSQSPAILSASPGEKVTMTCRASSSVSYIHWFQQKPGSSPKPWIYATSNLASGVPVRFSGSGSGTSYSLTISRVEAEDAATYYCQQWTSNPPTFGGGTKLEIKRTVAAPSVFIFPPSDEQLKSGTASVVCLLNNFYPREAKVQWKVDNALQSGNSQESVTEQDSKDSTYSLSSTLTLSKADYEKHKVYACEVTHQGLSSPVTKSFNRGECAPTSSSGGGGSEPHSLSYDITVIPKFRPGPRWCAVQGQVDEKTFLHYDCGNKTVTPVSPLGKKLNVTTAWKAQNPVLREVVDILTEQLWDIQLENYTPKEPLTLQARMSCEQKAEGHSSGSWQFSFDGQIFLLFDSEKRMWTTVHPGARKMKEKWENDKVVATKLYLWSMGDCIGWLEDFLMGMDSTLEPS
B5: ULBP2.wt rituximab-MicAbody (bispecific antibody)
heavy: not shown
light: QIVLSQSPAILSASPGEKVTMTCRASSSVSYIHWFQQKPGSSPKPWIYATSNLASGVPVRFSGSGSGTSYSLTISRVEAEDAATYYCQQWTSNPPTFGGGTKLEIKRTVAAPSVFIFPPSDEQLKSGTASVVCLLNNFYPREAKVQWKVDNALQSGNSQESVTEQDSKDSTYSLSSTLTLSKADYEKHKVYACEVTHQGLSSPVTKSFNRGECAPTSSSGGGGSEPHSLSYDITVIPKFRPGPRWCAVQGQVDEKTFLHYDCGNKTVTPVSPLGKKLNVTTAWKAQNPVLREVVDILTEQLRDIQLENYTPKEPLTLQARMSCEQKAEGHSSGSWQFSFDGQIFLLFDSEKRMWTTVHPGARKMKEKWENDKVVAMSFHYFSMGDCIGWLEDFLMGMDSTLEPS
B6: ULBP2.wt (bispecific antibody)
heavy: not shown
light: QIVLSQSPAILSASPGEKVTMTCRASSSVSYIHWFQQKPGSSPKPWIYATSNLASGVPVRFSGSGSGTSYSLTISRVEAEDAATYYCQQWTSNPPTFGGGTKLEIKRTVAAPSVFIFPPSDEQLKSGTASVVCLLNNFYPREAKVQWKVDNALQSGNSQESVTEQDSKDSTYSLSSTLTLSKADYEKHKVYACEVTHQGLSSPVTKSFNRGECAPTSSSGGGGSEPHSLSYDITVIPKFRPGPRWCAVQGQVDEKTFLHYDCGNKTVTPVSPLGKKLNVTTAWKAQNPVLREVVDILTEQLRDIQLENYTPKEPLTLQARMSCEQKAEGHSSGSWQFSFDGQIFLLFDSEKRMWTTVHPGARKMKEKWENDKVVAMSFHYFSMGDCIGWLEDFLMGMDSTLEPS

Legend:
Assay in all cases: ELISA
[1] = target: T1, Fc-NKG2D.wt (natural human NKG2D ectodomain fused to the C-terminus of human IgG1 Fc)
[2] = target: T1, Fc-NKG2D.wt (natural human NKG2D …); remark: listed apart in the source
[3] = target: T1, Fc-NKG2D.wt (natural human NKG2D …); remark: listed apart in the source
eNKG2D4 V|Y = target: eNKG2D4 V|Y
eNKG2D3 T|Y = target: eNKG2D3 T|Y
eNKG2D2 S|Y = target: eNKG2D2 S|Y
eNKG2D14 L|Y = target: eNKG2D14 L|Y

Binder	EC50 [1] [nM]	EC50 [2] [nM]	further results
B1	655	–	–
B2	389	–	–
B3	130	–	–
B4	–	52.7	–
B5	–	1.02	EC50 [3]: 1.41 nM
B6	–	–	EC50 (eNKG2D4 V|Y): 35.8 nM; EC50 (eNKG2D3 T|Y): 31.1 nM; EC50 (eNKG2D2 S|Y): 34.8 nM; EC50 (eNKG2D14 L|Y): 87.6 nM
